Measured values as given in PMC3632419.

B1: β-lactam synthetase (βLS) (Streptomyces clavuligerus) (protein)
chain: MGAPVLPAAFGFLASARTGGGRAPGPVFATRGSHTDIDTPQGERSLAATLVHAPSVAPDRAVARSLTGAPTTAVLAGEIYNRDELLSVLPAGPAPEGDAELVLRLLERYDLHAFRLVNGRFATVVRTGDRVLLATDHAGSVPLYTCVAPGEVRASTEAKALAAHRDPKGFPLADARRVAGLTGVYQVPAGAVMDIDLGSGTAVTHRTWTPGLSRRILPEGEAVAAVRAALEKAVAQRVTPGDTPLVVLSGGIDSSGVAACAHRAAGELDTVSMGTDTSNEFREARAVVDHLRTRHREITIPTTELLAQLPYAVWASESVDPDIIEYLLPLTALYRALDGPERRILTGYGADIPLGGMHREDRLPALDTVLAHDMATFDGLNEMSPVLSTLAGHWTTHPYWDREVLDLLVSLEAGLKRRHGRDKWVLRAAMADALPAETVNRPKLGVHEGSGTTSSFSRLLLDHGVAEDRVHEAKRQVVRELFDLTVGGGRHPSEVDTDDVVRSVADRTARGAA
B2: β-lactam synthetase (βLS) (Streptomyces clavuligerus; H447A) (protein)
chain: MGAPVLPAAFGFLASARTGGGRAPGPVFATRGSHTDIDTPQGERSLAATLVHAPSVAPDRAVARSLTGAPTTAVLAGEIYNRDELLSVLPAGPAPEGDAELVLRLLERYDLHAFRLVNGRFATVVRTGDRVLLATDHAGSVPLYTCVAPGEVRASTEAKALAAHRDPKGFPLADARRVAGLTGVYQVPAGAVMDIDLGSGTAVTHRTWTPGLSRRILPEGEAVAAVRAALEKAVAQRVTPGDTPLVVLSGGIDSSGVAACAHRAAGELDTVSMGTDTSNEFREARAVVDHLRTRHREITIPTTELLAQLPYAVWASESVDPDIIEYLLPLTALYRALDGPERRILTGYGADIPLGGMHREDRLPALDTVLAHDMATFDGLNEMSPVLSTLAGHWTTHPYWDREVLDLLVSLEAGLKRRHGRDKWVLRAAMADALPAETVNRPKLGVAEGSGTTSSFSRLLLDHGVAEDRVHEAKRQVVRELFDLTVGGGRHPSEVDTDDVVRSVADRTARGAA
B3: β-lactam synthetase (βLS) (Streptomyces clavuligerus; V446G) (protein)
chain: MGAPVLPAAFGFLASARTGGGRAPGPVFATRGSHTDIDTPQGERSLAATLVHAPSVAPDRAVARSLTGAPTTAVLAGEIYNRDELLSVLPAGPAPEGDAELVLRLLERYDLHAFRLVNGRFATVVRTGDRVLLATDHAGSVPLYTCVAPGEVRASTEAKALAAHRDPKGFPLADARRVAGLTGVYQVPAGAVMDIDLGSGTAVTHRTWTPGLSRRILPEGEAVAAVRAALEKAVAQRVTPGDTPLVVLSGGIDSSGVAACAHRAAGELDTVSMGTDTSNEFREARAVVDHLRTRHREITIPTTELLAQLPYAVWASESVDPDIIEYLLPLTALYRALDGPERRILTGYGADIPLGGMHREDRLPALDTVLAHDMATFDGLNEMSPVLSTLAGHWTTHPYWDREVLDLLVSLEAGLKRRHGRDKWVLRAAMADALPAETVNRPKLGGHEGSGTTSSFSRLLLDHGVAEDRVHEAKRQVVRELFDLTVGGGRHPSEVDTDDVVRSVADRTARGAA
B4: β-lactam synthetase (βLS) (Streptomyces clavuligerus; V446A) (protein)
chain: MGAPVLPAAFGFLASARTGGGRAPGPVFATRGSHTDIDTPQGERSLAATLVHAPSVAPDRAVARSLTGAPTTAVLAGEIYNRDELLSVLPAGPAPEGDAELVLRLLERYDLHAFRLVNGRFATVVRTGDRVLLATDHAGSVPLYTCVAPGEVRASTEAKALAAHRDPKGFPLADARRVAGLTGVYQVPAGAVMDIDLGSGTAVTHRTWTPGLSRRILPEGEAVAAVRAALEKAVAQRVTPGDTPLVVLSGGIDSSGVAACAHRAAGELDTVSMGTDTSNEFREARAVVDHLRTRHREITIPTTELLAQLPYAVWASESVDPDIIEYLLPLTALYRALDGPERRILTGYGADIPLGGMHREDRLPALDTVLAHDMATFDGLNEMSPVLSTLAGHWTTHPYWDREVLDLLVSLEAGLKRRHGRDKWVLRAAMADALPAETVNRPKLGAHEGSGTTSSFSRLLLDHGVAEDRVHEAKRQVVRELFDLTVGGGRHPSEVDTDDVVRSVADRTARGAA

Columns and labels:
Test in all cases: coupled-enzyme assay of AMP release
Assay type in all cases: biochemical, Streptomyces clavuligerus
Conditions in all cases: ATP as co-substrate
[1] = substrate: N=C(N)NCCC[C@H](NCCC(=O)O)C(=O)O
[2] = substrate: C[C@H](CN[C@@H](CCCNC(=N)N)C(=O)O)C(=O)O
[3] = substrate: C[C@@H](CN[C@@H](CCCNC(=N)N)C(=O)O)C(=O)O

| Protein | Km [1] [µM] | kcat [1] [s⁻¹] | Km [2] [µM] | kcat [2] [s⁻¹] | Km [3] [µM] | kcat [3] [s⁻¹] |
| --- | --- | --- | --- | --- | --- | --- |
| B1 | 37 ± 1 | 0.87 ± 0.01 | 40 ± 10 | 0.032 ± 0.002 | 60 ± 10 | 0.023 ± 0.001 |
| B2 |  |  |  |  | 80 ± 60 | 0.013 ± 0.001 |
| B3 | 610 ± 60 | 0.13 ± 0.01 | 1900 ± 700 | 0.07 ± 0.002 | 1200 ± 100 | 0.13 ± 0.01 |
| B4 | 360 ± 20 | 0.28 ± 0.01 | 330 ± 20 | 0.014 ± 0.001 | 460 ± 40 | 0.34 ± 0.02 |
